B1: 62 RNA (ssRNA)
RNA: UGGGCCUGGAAUAGUGGGGGCCCAGGGGAAGCUGCGAUGUGCUUCUGAGUGUUUGGAACGAG
B2: UGlow RNA (ssRNA)
RNA: ACAGUCCAGUCGCAGCAGACUCCCUCACAGCACCCACCUCUCCCACAAUCGGAUCCCAGG
B3: UGhigh RNA (ssRNA)
RNA: UGCUGGGAUGGUCAUGGUGGGUGACCCUGGGAUGGCCGCGGUGGGUGACCCUGGAAUGGU

Tests used:
Assay in all cases: fluorescence anisotropy
MYCN 1-154 = MYCN 1-154 (UniProt P04198 1-154)
MYCN FL = MYCN FL (UniProt P04198 1-464)
MYCN 1-154 dMBII = MYCN 1-154 dMBII (UniProt P04198 1-154, del111-134)

Row | Binder | binding result (MYCN 1-154) | Kd (MYCN FL) | binding result (MYCN 1-154 dMBII)
1 | B1 | binds | – | –
2 | B2 | – | 511 nM | –
3 | B3 | – | 175 nM | binds

From paper doi:10.1101/2023.08.16.553474
